This passage reports activity results from patent publication US20240035008.

For the data set, the system named is R2Tg (Taeniopygia guttata). The experiment in a line: cell_activity. To be noted: homology-guided insertion without Cas9; RLE and RT dependent (Example 10 reports ~0.5%).

As for “TCCTGAGTCGTGCTGCGTCGACAACGGTAGTGACGCGTATTGCCTGGAGGGCGGACGCCGGCATTCGCCGCGTGGTTCCCAGCGACCTGTATCCCCTCGT (double strand) [NOLC1 target (homology arms)]”, the activity was 0.1%.
